Measurements published in publication PMC9781616.

Target: Echovirus 11 (E11) strain 18-2135 full virus particle (capsid of VP1-4) (echovirus 11 (strain 18-2135))
Assay: cryo-EM structure

Decay-accelerating factor (DAF) full-length ectodomain, short consensus repeats SCR 1-4 (from UniProt P08174 35-285) (receptor)
DAF occupancy: 31.5%
stoichiometry N (DAF molecules per particle): 20
